Data: patent publication US20250011363A1, “OPTIMIZED SHORTENED PEPTIDE THAT BINDS TO ACETYLCHOLINE RECEPTOR, AND USE THEREOF” (SKINMED CO., LTD., priority 2021, published 2025)

B1: 6mer-1-301 (peptide)
peptide: RRSILR
B2: 6mer-1-891 (peptide)
peptide: RKMAFR
B3: 6mer-1-299 (peptide)
peptide: KRWLSK
B4: 6mer-1-889 (peptide)
peptide: KRIMEK
B5: 6mer-1-888 (peptide)
peptide: KKTANK
B6: 6mer-1-870 (peptide)
peptide: KRMSHR
B7: 6mer-1-320 (peptide)
peptide: KRVQYR
B8: 6mer-1-877 (peptide)
peptide: KKPEWR
B9: 6mer-1-903 (peptide)
peptide: KKHKPR
B10: 6mer-1-907 (peptide)
peptide: RKPAWR
B11: 6mer-1-300 (peptide)
peptide: RRWQQK
B12: 6mer-1-323 (peptide)
peptide: RRWLYR
B13: 6mer-1-314 (peptide)
peptide: RRRILR
B14: 6mer-1-905 (peptide)
peptide: RRICER
B15: 6mer-1-902 (peptide)
peptide: RRDKMK
B16: 6mer-1-883 (peptide)
peptide: KKIDDK
B17: 6mer-1-871 (peptide)
peptide: KREWDR
B18: 6mer-1-303 (peptide)
peptide: RKQYCK
B19: 6mer-1-308 (peptide)
peptide: KRRITR
B20: 6mer-1-333 (peptide)
peptide: RKRQSR
B21: 6mer-1-330 (peptide)
peptide: RKVQRK
B22: 6mer-1-869 (peptide)
peptide: KRKDER
B23: 6mer-1-893 (peptide)
peptide: RRIPHR
B24: 6mer-1-306 (peptide)
peptide: KKLFYR
B25: 6mer-1-310 (peptide)
peptide: RKRQLK
B26: 6mer-1-908 (peptide)
peptide: KKFMVR
B27: 6mer-1-900 (peptide)
peptide: RRDTGR
B28: 6mer-1-315 (peptide)
peptide: RKQQTK
B29: 6mer-1-311 (peptide)
peptide: RRGYQK
B30: 6mer-1-307 (peptide)
peptide: KRWYRR
B31: 6mer-1-309 (peptide)
peptide: KKGICK
B32: 6mer-1-873 (peptide)
peptide: KRIWAR
B33: 6mer-1-880 (peptide)
peptide: KRPMDK
B34: 6mer-1-317 (peptide)
peptide: KRSFRR
B35: 6mer-1-872 (peptide)
peptide: KRPCHR
B36: 6mer-1-328 (peptide)
peptide: KRWLQK
B37: 6mer-1-876 (peptide)
peptide: RKYWAR
B38: 6mer-1-878 (peptide)
peptide: RRKDNR
B39: 6mer-1-899 (peptide)
peptide: KRMKWK
B40: 6mer-1-302 (peptide)
peptide: RRGQSR
B41: 6mer-1-318 (peptide)
peptide: KKSRRK
B42: 6mer-1-874 (peptide)
peptide: KRANHK
B43: 6mer-1-329 (peptide)
peptide: RKWRQK
B44: 6mer-1-319 (peptide)
peptide: KRWVQK
B45: 6mer-1-868 (peptide)
peptide: KKHHAR
B46: 6mer-1-322 (peptide)
peptide: KRGVQR
B47: 6mer-1-884 (peptide)
peptide: KRYTKR
B48: 6mer-1-897 (peptide)
peptide: RRPSIK
B49: 6mer-1-895 (peptide)
peptide: KKDSKK
B50: 6mer-1-898 (peptide)
peptide: RKATKR
B51: 6mer-1-334 (peptide)
peptide: RRRRLR
B52: 6mer-1-882 (peptide)
peptide: KKPAMR
B53: 6mer-1-894 (peptide)
peptide: RKCWWR
B54: 6mer-1-896 (peptide)
peptide: KRDWIK
B55: 6mer-1-304 (peptide)
peptide: RKLYSR
B56: 6mer-1-875 (peptide)
peptide: KKTNGR
B57: 6mer-1-332 (peptide)
peptide: KKRVQK
B58: 6mer-1-324 (peptide)
peptide: RRLQRR
B59: 6mer-1-901 (peptide)
peptide: RKPNGR
B60: 6mer-1-316 (peptide)
peptide: RKQIRK
B61: 6mer-1-881 (peptide)
peptide: KKHMER
B62: 6mer-1-890 (peptide)
peptide: RRTSNK
B63: 6mer-1-321 (peptide)
peptide: RKQVRR
B64: 6mer-1-892 (peptide)
peptide: RKTEKR
B65: 6mer-1-887 (peptide)
peptide: KRINHR
B66: 6mer-1-879 (peptide)
peptide: RRYNNR
B67: 6mer-1-327 (peptide)
peptide: KRGITR
B68: 6mer-1-313 (peptide)
peptide: RRWFCK
B69: 6mer-1-312 (peptide)
peptide: KKSRQK
B70: 6mer-1-867 (peptide)
peptide: KRIPMR
B71: 6mer-1-305 (peptide)
peptide: RKWISR
B72: 6mer-1-886 (peptide)
peptide: RKFSNK
B73: 6mer-1-331 (peptide)
peptide: RKRITR
B74: 6mer-1-326 (peptide)
peptide: RKWIYK
B75: 6mer-1-885 (peptide)
peptide: RRKTPR
B76: 6mer-1-904 (peptide)
peptide: KKDTKR
B77: 6mer-1-325 (peptide)
peptide: RRQIQR
B78: 6mer-1-866 (peptide)
peptide: KRCHFR
B79: 6mer-1-906 (peptide)
peptide: KKINGK

molecular target: acetylcholine receptor; assay: SPR, receptor immobilized on CM5 chip, peptide 10 uM

Binding affinity (RU) | Binder
154 RU | B1
13 RU | B2
139 RU | B3
25 RU | B4
33 RU | B5
25 RU | B6
121 RU | B7
19 RU | B8
37 RU | B9
42 RU | B10
148 RU | B11
149 RU | B12
141 RU | B13
36 RU | B14
39 RU | B15
21 RU | B16
30 RU | B17
123 RU | B18
135 RU | B19
135 RU | B20
148 RU | B21
22 RU | B22
22 RU | B23
135 RU | B24
127 RU | B25
37 RU | B26
24 RU | B27

Binding affinity (RU) | Binder
128 RU | B28
127 RU | B29
153 RU | B30
153 RU | B31
23 RU | B32
21 RU | B33
148 RU | B34
23 RU | B35
151 RU | B36
19 RU | B37
27 RU | B38
31 RU | B39
151 RU | B40
145 RU | B41
18 RU | B42
123 RU | B43
123 RU | B44
14 RU | B45
146 RU | B46
26 RU | B47
24 RU | B48
28 RU | B49
31 RU | B50
154 RU | B51
25 RU | B52
18 RU | B53
11 RU | B54

Binding affinity (RU) | Binder
121 RU | B55
33 RU | B56
122 RU | B57
128 RU | B58
35 RU | B59
145 RU | B60
20 RU | B61
18 RU | B62
154 RU | B63
20 RU | B64
30 RU | B65
27 RU | B66
139 RU | B67
148 RU | B68
151 RU | B69
25 RU | B70
153 RU | B71
17 RU | B72
128 RU | B73
136 RU | B74
17 RU | B75
31 RU | B76
142 RU | B77
26 RU | B78
30 RU | B79
